Assay results: US12060598

Molecular target: T1, octanoyl-ACP (octanoyl-acyl carrier protein, E. coli K12 MG1655 ACP), P0A6A8
T1 chain: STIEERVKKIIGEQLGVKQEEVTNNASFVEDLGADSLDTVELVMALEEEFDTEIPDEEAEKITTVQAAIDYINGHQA

B1: CpFatB1.2-M4 (ΔA54, N28S, I65M) (protein)
chain: MGSSHHHHHHSSENLYFQGGGGYAAHRDYHRVRCAGKRWTMFDRKSKRPSMLMDSFGLERVVQDGLVFRQSFSIRSYEICADRTASMETVMNHVQETSLNQCKSIGLLDDGFGRSPEMCKRDLIWVVTRMKIMVNRYPTWGDTIEVSTWLSQSGKIGMGRDWLISDCNTGEILVRATSVYAMMNQKTRRFSKLPHEVRQEFAPHFLDSPPAIEDNDGKLQKFDVKTGDSIRKGLTPGWYDLDVNQHVSNVKYIGWILESMPTEVLETQELCSLTLEYRRECGRDSVLESVTSMDPSKVGDRFQYRHLLRLEDGADIMKGRTEWRPKNAGTNGAISTGKT
Km (DTNB thioesterase assay): the Km remained relatively low
Vmax (DTNB thioesterase assay), fold relative to CpFatB1.2: 15.7 fold increase in Vmax over CpFatB1.2
